From publication PMC4764553 (eLife, 2016)

B1: IE1-CTD peptide (chromatin-tethering domain of hCMV IE1, a.a. 476–491) (peptide)
peptide: GGKSTHPMVTRSKADQ
B2: IE1-CTD mutant lacking the N-terminal segment (Δ476–480) (peptide)
peptide: HPMVTRSKADQ
B3: Full-length hCMV (Towne) IE1 (natural protein)
chain: MESSAKRKMDPDNPDEGPSSKVPRPETPVTKATTFLQTMLRKEVNSQLSLGDPLFPELAEESLKTFERVTEDCNENPEKDVLAELVKQIKVRVDMVRHRIKEHMLKKYTQTEEKFTGAFNMMGGCLQNALDILDKVHEPFEEMKCIGLTMQSMYENYIVPEDKREMWMACIKELHDVSKGAANKLGGALQAKARAKKDELRRKMMYMCYRNIEFFTKNSAFPKTTNGCSQAMAALQNLPQCSPDEIMAYAQKIFKILDEERDKVLTHIDHIFMDILTTCVETMCNEYKVTSDACMMTMYGGISLLSEFCRVLSCYVLEETSVMLAKRPLITKPEVISVMKRRIEEICMKVFAQYILGADPLRVCSPSVDDLRAIAEESDEEEAIVAYTLATRGASSSDSLVSPPESPVPATIPLSSVIVAENSDQEESEQSDEEEEEGAQEEREDTVSVKSEPVSEIEEVAPEEEEDGAEEPTASGGKSTHPMVTRSKADQ

Target: T1, Human nucleosome core particle (human histone octamer with the 147-bp Widom 601 DNA) (human, UniProt P68431 1-136; P62805 1-103; P04908 1-130; P06899 1-126)
T1 construct: also called recombinant human NCP; human NCP
Test: ITC
Details: both partners purified

Row | Binder | Kd [µM] | fold weaker binding than IE1-CTD alone [fold]
1 | B1 | 0.4 | 
2 | B2 | 12 | 
3 | B3 |  | ~5
